In the supplement of paper PMC7125110:
± gives the standard error. This sample holds only a part of the variants without activity.

B1: glmS ribozyme (parent)
chain: AUAAAAGCGCCAGAACUACAGAAAUGUAGUUGACGAGGAGGAGGUUUAUCGAAUUUUCGGCGGAUGCCUCCAAA

Variants of: B1
Assay: self-cleavage kobs at 2500 uM GlcN6P; higher = faster cleavage; RNA array
Details: with glucosamine-6-phosphate
Procedure, shortened: (§1)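 E. coli RNA polymerase transcribed barcoded ribozyme variants in situ on sequenced MiSeq chips, which were tracked via a hybridised Cy3 probe at 37 °C. Tiles were imaged over ~14 h after glucosamine-6-phosphate (40 μM to 10 mM) in HEPES/KCl/Mg(OAc)2 buffer was flowed in. Normalised per-tile medians were fit to one- or two-exponential decays for kobs, and kcat and KM came from weighted Michaelis–Menten fits.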

Variant	self-cleavage kobs at 2500 uM GlcN6P
C16G G29C A53U	0.00684 ± 0.0022 s⁻¹
A15G U31A A53G	0.01 ± 0.0031 s⁻¹
U30G A64G C67G	6.44e-05 ± 3e-05 s⁻¹
U31A A33U U56G U65G C68A	< 1e-05 s⁻¹
U31A G32U U45G	0.000148 ± 5.6e-05 s⁻¹
A15G G32A C58G	8.81e-05 ± 2.9e-05 s⁻¹
U31A U49G	0.000183 ± 3.1e-05 s⁻¹
U31G U49G G59C	< 1e-05 s⁻¹
G29C A33U G38C U56A C71U	< 1e-05 s⁻¹
A14C U31G A64C	6.13e-05 ± 2.2e-05 s⁻¹
A14C U45G C71A	4.43e-05 ± 1.3e-05 s⁻¹
A15C G51A C70G	6.1e-05 ± 2.9e-05 s⁻¹
A15G C50G	8.29e-05 ± 3.5e-05 s⁻¹
A15U G35U C67G	< 1e-05 s⁻¹
U31G G38C G44A	< 1e-05 s⁻¹
G21U U57C	9.36e-05 ± 1.4e-05 s⁻¹
G29A G32C A64U	< 1e-05 s⁻¹
U30G C34A C68U	< 1e-05 s⁻¹
U31C G32C G37U G41C U46A A53U U55A A64C	< 1e-05 s⁻¹
A15G U47G U57A C71G	5.79e-05 ± 2.3e-05 s⁻¹
C16A A52U C70G	0.0002 ± 9.8e-05 s⁻¹
A14C U31C U54C	0.0014 ± 0.00039 s⁻¹
A14U G43U C68G	0.0033 ± 0.00062 s⁻¹
A14U U45A C71G	0.000196 ± 5.4e-05 s⁻¹
A18U	0.00664 ± 0.0014 s⁻¹
U30C G35U U65C	< 1e-05 s⁻¹

Variant	self-cleavage kobs at 2500 uM GlcN6P
G29C C34U G37U C70U	0.000116 ± 3.3e-05 s⁻¹
C16G G29C U31G	0.00447 ± 0.00064 s⁻¹
A14U U56A G63A	< 1e-05 s⁻¹
U31C G40U A48G C61U	< 1e-05 s⁻¹
U30A G32C	6.18e-05 ± 2.8e-05 s⁻¹
C16G G32U G66A	0.000109 ± 3.9e-05 s⁻¹
U30A U46G C68G	0.000143 ± 6.7e-05 s⁻¹
A15G A39U G40A C61A	< 1e-05 s⁻¹
C16U G37A U46C U56G	0.000119 ± 2.7e-05 s⁻¹
C16A A36G U65G	< 1e-05 s⁻¹
A14U U45C G60C G63C	< 1e-05 s⁻¹
U30G G35U G59U	< 1e-05 s⁻¹
C16A G32U G43U C61G	< 1e-05 s⁻¹
U31C U56A C67U	0.000427 ± 0.00012 s⁻¹
C16U G43A C67A U69A	6.4e-05 ± 2.1e-05 s⁻¹
G29C A33U G62A A64U	< 1e-05 s⁻¹
C16U U46C U56C	0.000416 ± 7.9e-05 s⁻¹
G32A A53U U56A C71U	4.22e-05 ± 1e-05 s⁻¹
C16G A42G A64U G66A C68A	< 1e-05 s⁻¹
G32C A48U C68U	< 1e-05 s⁻¹
A14U C50A A53G C70A	7.44e-05 ± 1.4e-05 s⁻¹
A15U G44A A48C U56A C70A	< 1e-05 s⁻¹
A14U G43C U45G	0.000172 ± 4.1e-05 s⁻¹
A15C A39G U47G A53U	0.000235 ± 8.5e-05 s⁻¹
C16U A39U U54G	0.00743 ± 0.0018 s⁻¹
A14C U30G C58G	5.75e-05 ± 2.4e-05 s⁻¹

Variant	self-cleavage kobs at 2500 uM GlcN6P
A14U G29C G44U	< 1e-05 s⁻¹
G32A G41U C50U U56A G62U	< 1e-05 s⁻¹
U31G G37A C67U	5.28e-05 ± 1.6e-05 s⁻¹
C16A A42U A64U	< 1e-05 s⁻¹
G29C U31G	< 1e-05 s⁻¹
C16G U55A C67U C71A	8.06e-05 ± 2.9e-05 s⁻¹
U30C G43A U46G C67U	< 1e-05 s⁻¹
G29C C50U C68A	7.07e-05 ± 2.7e-05 s⁻¹
G32C G38A U47A C58U A64C U69G	0.000153 ± 4.8e-05 s⁻¹
A14G C16U A36G	4.05e-05 ± 1.5e-05 s⁻¹
A14C U31C U65A C70A	7.72e-05 ± 2.5e-05 s⁻¹
A15U G35U G40A	< 1e-05 s⁻¹
C16U A33G U69A C70G	7.7e-05 ± 3.3e-05 s⁻¹
A14U A15U G40U	0.000122 ± 3.7e-05 s⁻¹
G29A G32C C34A A48G U57A	< 1e-05 s⁻¹
G29C U54G C68A C71G	9.33e-05 ± 4.3e-05 s⁻¹
U31G G32A A33C G41A A48G	< 1e-05 s⁻¹
A14G A33U C70G	< 1e-05 s⁻¹
C16A G43U G51A	< 1e-05 s⁻¹
G26C U47C G60C	< 1e-05 s⁻¹
A15U U54C U65A	0.000123 ± 2.8e-05 s⁻¹
G32C C50U C58G	< 1e-05 s⁻¹
A15G G41U U56G C71G	8.85e-05 ± 2e-05 s⁻¹
G29A U55A C67U	0.000242 ± 4.9e-05 s⁻¹
A15G A64C G66A	0.000144 ± 4.8e-05 s⁻¹
C16A U31C C70A	< 1e-05 s⁻¹

Variants of: B1
Assay: self-cleavage kobs at 10000 uM GlcN6P; higher = faster cleavage; RNA array
Details: with glucosamine-6-phosphate
Procedure, shortened: as §1

Variant	self-cleavage kobs at 10000 uM GlcN6P
U31A U49G	0.000277 ± 4.5e-05 s⁻¹
G29C C34U G37U C70U	3.91e-05 ± 1.8e-05 s⁻¹
U30A G32C	0.000203 ± 5.8e-05 s⁻¹
C16G G32U G66A	0.000209 ± 5.7e-05 s⁻¹
U31C U56A C67U	0.000671 ± 0.00015 s⁻¹
A14U G43C U45G	0.000252 ± 6.9e-05 s⁻¹
G32A G41U C50U U56A G62U	< 1e-05 s⁻¹
U31G G37A C67U	0.000189 ± 3.7e-05 s⁻¹
C16G U55A C67U C71A	3.71e-05 ± 1.3e-05 s⁻¹
A14U A15U G40U	0.000149 ± 2.6e-05 s⁻¹
A15U U54C U65A	0.000335 ± 3.8e-05 s⁻¹
